We go through 1 molecule from publication PMC12639696, “Death-associated protein kinase 1-dependent SENP1 degradation increases tau SUMOylation and leads to cognitive dysfunction in a mouse model for tauopathy” (Molecular Neurodegeneration, 2025).

The target of this test is T1, His-DAPK1 (848–1288 aa) (UniProt P53355 848-1288).
T1 construct: source: purified recombinant protein
T1 sequence (looked up): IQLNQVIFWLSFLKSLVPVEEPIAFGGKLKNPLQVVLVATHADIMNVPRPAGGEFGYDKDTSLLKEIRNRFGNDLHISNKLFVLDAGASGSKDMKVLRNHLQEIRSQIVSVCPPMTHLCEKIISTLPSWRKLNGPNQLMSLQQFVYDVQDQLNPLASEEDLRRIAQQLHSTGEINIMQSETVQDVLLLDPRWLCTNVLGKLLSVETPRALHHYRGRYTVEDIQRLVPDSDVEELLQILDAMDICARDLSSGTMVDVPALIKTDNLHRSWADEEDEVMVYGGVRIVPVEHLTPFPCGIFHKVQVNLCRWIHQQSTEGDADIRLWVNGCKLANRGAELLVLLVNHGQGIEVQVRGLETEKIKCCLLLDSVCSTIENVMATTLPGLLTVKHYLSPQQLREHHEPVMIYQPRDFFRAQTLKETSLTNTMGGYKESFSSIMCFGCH
Kind of test: pull-down; purified His-DAPK1 (848–1288 aa) incubated with GST or GST-SENP1 proteins; immunoblot with an anti-His antibody. Conditions: both partners purified. For orientation: In western blotting, separated proteins are transferred to a membrane and probed.

B1: GST-SENP1 (1-200 aa) (domain or fragment, UniProt Q9P0U3 1-200, looked up)
chain: MDDIADRMRMDAGEVTLVNHNSVFKTHLLPQTGFPEDQLSLSDQQILSSRQGHLDRSFTCSTRSAAYNPSYYSDNPSSDSFLGSGDLRTFGQSANGQWRNSTPSSSSSLQKSRNSRSLYLETRKTSSGLSNSFAGKSNHHCHVSAYEKSFPIKPVPSPSWSGSCRRSLLSPKKTQRRHVSTAEETVQEEEREIYRQLLQM
notes: Sentrin-specific protease 1 (SENP1), N-terminal region, residues 1-200; also called N-terminal region (1-200 aa) of SENP1; source: E. coli, purified GST fusion protein
Take B1: the binding result is reported as “binds”.
